# Source: patent US20240301041A1 (Regeneron, published 2024)
# What was measured:
# [1] = molecular target: T1, Protein A on the surface of S. aureus Newman wild-type (Staphylococcus aureus (strain Newman), UniProt P38507 37-477); assay: ELISA, coated S. aureus Newman, antibody 1.47E-13 M
# T1 construct: whole, on cells; also called S. aureus Newman WT; wild-type S. aureus expressing Protein A
# [2] = molecular target: T1, Protein A on the surface of S. aureus …; assay: ELISA, coated S. aureus Newman, antibody 7.54E-11 M
# [3] = molecular target: T2, IgG binding protein (Protein A homolog SpsQ/SpsP) on S. intermedius 27369 (Staphylococcus intermedius); assay: ELISA, coated S. intermedius 27369, antibody 1.18E-12 M
# T2 construct: whole, on cells; also called Staphylococcus intermedius 27369
# [4] = molecular target: T2, IgG binding protein (Protein A homolog …); assay: ELISA, coated S. intermedius 27369, antibody 3.09E-07 M
# [5] = molecular target: T2, IgG binding protein (Protein A homolog …); assay: ELISA, coated S. intermedius 27369, antibody 3.86E-08 M
# [6] = molecular target: T2, IgG binding protein (Protein A homolog …); assay: ELISA, coated S. intermedius 27369, antibody 9.42E-12 M
# [7] = molecular target: T1, Protein A on the surface of S. aureus …; assay: ELISA on plate-coated S. aureus Newman WT (grown in TSB)
# [8] = molecular target: T3, IgG binding protein (Protein A homolog SpsQ/SpsP) on MRSP S. pseudintermedius 88493 (Staphylococcus pseudintermedius); assay: ELISA, coated S. pseudintermedius 88493, antibody 3.09E-07 M
# T3 construct: whole, on cells; also called MRSP Staphylococcus pseudintermedius 88493 (methicillin-resistant)
# [9] = molecular target: T3, IgG binding protein (Protein A homolog …); assay: ELISA, coated S. pseudintermedius 88493, antibody 4.82E-09 M
# [10] = molecular target: T4, IgG binding protein (Protein A homolog SpsQ/SpsP) on S. pseudintermedius AHDRCC 98200 (Staphylococcus pseudintermedius); assay: ELISA, coated S. pseudintermedius 98200, antibody 1.18E-12 M
# T4 construct: whole, on cells; also called S. pseudintermedius 98200; Staphylococcus pseudintermedius AHDRCC 98200
# [11] = molecular target: T4, IgG binding protein (Protein A homolog …); assay: ELISA, coated S. pseudintermedius 98200, antibody 1.47E-13 M
# [12] = molecular target: T4, IgG binding protein (Protein A homolog …); assay: ELISA, coated S. pseudintermedius 98200, antibody 3.09E-07 M
# [13] = molecular target: T4, IgG binding protein (Protein A homolog …); assay: ELISA, coated S. pseudintermedius 98200, antibody 3.86E-08 M
# [14] = molecular target: T4, IgG binding protein (Protein A homolog …); assay: ELISA, coated S. pseudintermedius 98200, antibody 4.82E-09 M
# [15] = molecular target: T4, IgG binding protein (Protein A homolog …); assay: ELISA, coated S. pseudintermedius 98200, antibody 6.03E-10 M
# [16] = molecular target: T4, IgG binding protein (Protein A homolog …); assay: ELISA, coated S. pseudintermedius 98200, antibody 9.42E-12 M
# [17] = molecular target: T5, Protein A (purified reagent) (Staphylococcus aureus, UniProt P38507 37-477); assay: SPR (Biacore), mAb captured by anti-human Fc, Protein A injected, 25 C
# T5 construct: also called Protein A (Calbiochem, 539202-5 MG); Protein A reagent
# [18] = molecular target: T5, Protein A (purified reagent); assay: SPR (Biacore), mAb captured by anti-human Fc, Protein A injected, 37 C
# [19] = molecular target: T1, Protein A on the surface of S. aureus …; assay: flow cytometry; blocking antibody 1 ug/mL, then Alexa-488 Fc fragment (competitor) on wild-type S. aureus
# [20] = molecular target: T1, Protein A on the surface of S. aureus …; assay: flow cytometry; blocking antibody 10 ug/mL, then Alexa-488 VH3 hIgG1*/* antibody (competitor) on wild-type S. aureus
binder,measurement,setting,value
"H1xH15140P*/* (anti-Protein A) (antibody, V domains shown, also called anti-Protein A hIgG1*/*; H1xH15140P*/*-L1) VH: EVQLVESGGGLVQPGGSLTLSCTASGFSFSSYVMSWVRQSPGKGLEWVSAIGGSGTSTYYRDSVKGRFTISRDNSKNTLNLQMSSLRAEDTAVYYCARDGLGHRDYWGQGTLVTVSS VL: DIQMTQSPSSVSASVGDRVTITCRASQGINSWLAWYQQKPGKAPKLLIYAASSLQSGVPSRFSGSGSGTDFTLTISSLQPEDFATYYCQQANSFPFTFGPGTKVDIK",ELISA luminescent signal,[1],22000
same,ELISA luminescent signal,[2],238000
same,ELISA luminescent signal,[3],2460
same,ELISA luminescent signal,[4],21000
same,ELISA luminescent signal,[5],8310
same,ELISA luminescent signal,[6],1520
same,EC50,[7],90.6 pM
same,ELISA luminescent signal,[8],10700
same,ELISA luminescent signal,[9],5970
same,ELISA luminescent signal,[10],5020
same,ELISA luminescent signal,[11],3940
same,ELISA luminescent signal,[12],20600
same,ELISA luminescent signal,[13],6680
same,ELISA luminescent signal,[14],3400
same,ELISA luminescent signal,[15],4890
same,ELISA luminescent signal,[16],2480
same,Kd,[17],204 pM
same,koff,[17],7.78e-05 s⁻¹
same,kon,[17],381000 M⁻¹ s⁻¹
same,t½,[17],2.48 h
same,Kd,[18],98.6 pM
same,koff,[18],0.000117 s⁻¹
same,kon,[18],1.19e+06 M⁻¹ s⁻¹
same,t½,[18],1.65 h
same,Fc: S. aureus blocking activity (%),[19],78%
same,VH3 antibody: S. aureus blocking activity (%),[20],84.7%
